Experimental data from patent US20220298214A1.

Target: GLP-1 receptor (UniProt P43220)
Assay: cell-based or functional assay

GLP-1 receptor, sequence (P43220 24-463 limits assumed): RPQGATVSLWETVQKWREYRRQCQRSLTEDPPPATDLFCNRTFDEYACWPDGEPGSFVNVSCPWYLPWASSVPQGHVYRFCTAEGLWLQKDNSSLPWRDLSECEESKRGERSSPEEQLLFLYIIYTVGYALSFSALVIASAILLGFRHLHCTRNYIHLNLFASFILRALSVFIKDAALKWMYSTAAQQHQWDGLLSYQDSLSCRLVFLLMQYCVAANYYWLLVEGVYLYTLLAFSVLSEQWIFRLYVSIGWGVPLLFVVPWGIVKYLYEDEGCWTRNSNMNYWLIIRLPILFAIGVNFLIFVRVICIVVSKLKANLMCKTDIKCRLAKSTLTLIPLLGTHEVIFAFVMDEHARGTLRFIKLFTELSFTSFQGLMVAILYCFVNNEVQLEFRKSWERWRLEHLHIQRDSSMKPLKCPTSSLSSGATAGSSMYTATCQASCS

EC50 value (pM), luciferase reporter gene (CRE-Luc) in HEK293-GLP1R-CRE-Luc cells: 41.2 pM
Substance: Dulaglutide (Fc fusion)
